The results in this text go back to US20190077860A1 (EISAI R AND D MANAGEMENT, published 2019).

The term Kd denotes the equilibrium constant for the complex coming apart. By koff is commonly meant a measure of how fast the partners let go of each other. A lower koff goes with a long-lived complex. In general, kon refers to the second-order rate constant of association. A low value points to slower complex formation. In general, IC50 refers to the concentration that gives 50% inhibition. Read a low IC50 as greater potency.

Assay [1] concerns the target T1, human EphA4 extracellular region-SEAP-His protein (human, UniProt P54764 20-547).
T1 construct: also called hEphA4-SEAP-His
Kind of assay: SPR, Ab captured. In short, it runs like this: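 Antibodies captured (~30–60 RU) on a protein A chip, or for antibody A on immobilized rat anti-mouse IgG1, in HBS-EP. Human EphA4 extracellular region-SEAP-His at 0.6–50 nM injected in ascending order without regeneration, with 120 s association and 900 s dissociation. KD=kd/ka from 1:1 binding model fits.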
Background: Surface plasmon resonance follows binding to a sensor surface in real time, without labels.

For assay [2], the target named is T2, human EphB1 extracellular region-SEAP-His protein (human, UniProt P54762 18-540).
T2 construct: extracellular domain; also called hEphB1-SEAP-His
T2 sequence (looked up): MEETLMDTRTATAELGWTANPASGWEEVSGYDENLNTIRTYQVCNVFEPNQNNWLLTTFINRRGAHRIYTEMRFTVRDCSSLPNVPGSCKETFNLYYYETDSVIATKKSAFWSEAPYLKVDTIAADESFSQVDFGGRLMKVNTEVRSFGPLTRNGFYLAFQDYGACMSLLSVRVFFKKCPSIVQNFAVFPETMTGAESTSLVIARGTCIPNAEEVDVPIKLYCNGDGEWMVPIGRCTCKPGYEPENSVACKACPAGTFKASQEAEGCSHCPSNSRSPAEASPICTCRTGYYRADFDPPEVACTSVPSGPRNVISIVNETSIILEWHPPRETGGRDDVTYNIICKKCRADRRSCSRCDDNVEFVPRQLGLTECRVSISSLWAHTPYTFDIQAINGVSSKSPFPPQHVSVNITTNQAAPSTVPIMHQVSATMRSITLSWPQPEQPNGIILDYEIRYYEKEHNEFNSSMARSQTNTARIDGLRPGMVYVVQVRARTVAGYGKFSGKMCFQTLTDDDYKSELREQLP
Kind of assay: ELISA. A general note: ELISA stands for enzyme-linked immunosorbent assay.

The target of assay [3] is T1, human EphA4 extracellular …. Kind of assay: competition ELISA, competitor human Ephrin A5-Fc. In short, it runs like this:
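Anti-alkaline phosphatase-coated plates captured EphA4-SEAP-His (10 nM final), then antibody (0–3000 nM serial dilutions) and biotinylated Ephrin A5-Fc (0.7 nM final) were co-added for 1 h at room temperature. Bound ligand detected with HRP-streptavidin and TMBZ, stopped with 1N H₂SO₄, A450 read.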

T1 sequence (P54764 20-547): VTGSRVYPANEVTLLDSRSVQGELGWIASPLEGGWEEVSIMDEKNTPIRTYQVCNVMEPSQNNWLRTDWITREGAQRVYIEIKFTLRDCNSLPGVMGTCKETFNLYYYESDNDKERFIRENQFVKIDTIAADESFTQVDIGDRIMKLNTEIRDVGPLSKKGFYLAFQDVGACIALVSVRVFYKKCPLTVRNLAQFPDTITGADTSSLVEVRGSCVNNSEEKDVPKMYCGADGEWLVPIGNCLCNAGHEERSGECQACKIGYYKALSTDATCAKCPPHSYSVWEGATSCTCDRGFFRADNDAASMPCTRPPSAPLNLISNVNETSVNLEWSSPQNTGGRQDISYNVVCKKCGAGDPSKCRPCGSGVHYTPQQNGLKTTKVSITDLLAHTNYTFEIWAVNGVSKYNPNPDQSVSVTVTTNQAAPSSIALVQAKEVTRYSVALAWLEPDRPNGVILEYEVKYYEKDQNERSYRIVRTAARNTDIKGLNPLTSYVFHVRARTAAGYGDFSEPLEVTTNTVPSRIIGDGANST

B1: humanized antibody No. 96 (antibody, human IgG1, kappa)
heavy: QVQLVQSGSELKKPGASVKVSCKASGYTFTDYSMHWVRQAPGQGLKWMGWINTETGEPTYADDFKGRFVFSLDTSVSTAYLQISSLKAEDTAVYYCARIPLYYYGSRYWYFDVWGQGTTVTVSSASTKGPSVFPLAPSSKSTSGGTAALGCLVKDYFPEPVTVSWNSGALTSGVHTFPAVLQSSGLYSLSSVVTVPSSSLGTQTYICNVNHKPSNTKVDKRVEPKSCDKTHTCPPCPAPPAAAPSVFLFPPKPKDTLMISRTPEVTCVVVDVSHEDPEVQFNWYVDGVEVHNAKTKPREEQFNSTFRVVSVLTVVHQDWLNGKEYKCKVSNKGLPAPIEKTISKTKGQPREPQVYTLPPSREEMTKNQVSLTCLVKGFYPSDIAVEWESNGQPENNYKTTPPMLDSDGSFFLYSKLTVDKSRWQQGNVFSCSVMHEALHNHYTQKSLSLSPG
light: EIVMTQSPATLSVSPGERATLSCRASENIYRNLAWYQQKPGQSPRLLIYAATNLADGIPARFSGSGSGTEYTLTISSLQSEDFAVYYCQHFWGTPWTFGQGTKVEIKRTVAAPSVFIFPPSDEQLKSGTASVVCLLNNFYPREAKVQWKVDNALQSGNSQESVTEQDSKDSTYSLSSTLTLSKADYEKHKVYACEVTHQGLSSPVTKSFNRGEC
notes: human Ig kappa; also called L2-4/HK2
In assay [1], B1 had a dissociation constant Kd of 1.1 nM, a koff of 0.00031 s⁻¹ and a kon of 270000 M⁻¹ s⁻¹. For the same molecule, in assay [2], the “A450 as % of hEphA4-SEAP-His” value is 5.6%. Moreover, the IC50 in assay [3] came to 3.7 nM.
